From paper PMC3995651
Blank lines part the entries; values can stand above or below the substance they belong to.

What was measured:
Assay in all cases: cross-linking; BS3 (0.5 or 5 mM), 5 µM protein in solution without liposomes, 20 mM Hepes, 150 mM NaCl, pH 7.4; 30 min room temperature, then 2 min 37°C with BS3; SDS-PAGE, Coomassie; step: monomers to dimer
[1] = target: BIN1 N-BAR domain (1-254) D151N (human)
[2] = target: BIN1 N-BAR domain (1-254) K35N (human)
[3] = target: BIN1 N-BAR domain (1-254) R154Q (human)
[4] = target: BIN1 N-BAR domain (1-254), wild type (human)

stoichiometry N [1]: 2
Substance: BIN1 N-BAR domain (1-254) D151N (domain or fragment)

stoichiometry N [2]: 2
Substance: BIN1 N-BAR domain (1-254) K35N (domain or fragment)

stoichiometry N [3]: 2
Substance: BIN1 N-BAR domain (1-254) R154Q (domain or fragment)

stoichiometry N [4]: 2
Substance: BIN1 N-BAR domain (1-254), wild type (domain or fragment)
